# Data taken from patent US9957297B2, “Template-fixed peptidomimetics as inhibitors of FPR1” (POLYPHOR AG, priority 2011, dated 2018).
# Bridges are numbered along the chain shown (N, C = ends). [ ]: non-standard residue; d: D form. Dab = NCC[C@H](N)C(=O)O
# T1: Formyl-Peptide Receptor 1 (UniProt P21462 1-350, limits assumed)
# T1 sequence (looked up): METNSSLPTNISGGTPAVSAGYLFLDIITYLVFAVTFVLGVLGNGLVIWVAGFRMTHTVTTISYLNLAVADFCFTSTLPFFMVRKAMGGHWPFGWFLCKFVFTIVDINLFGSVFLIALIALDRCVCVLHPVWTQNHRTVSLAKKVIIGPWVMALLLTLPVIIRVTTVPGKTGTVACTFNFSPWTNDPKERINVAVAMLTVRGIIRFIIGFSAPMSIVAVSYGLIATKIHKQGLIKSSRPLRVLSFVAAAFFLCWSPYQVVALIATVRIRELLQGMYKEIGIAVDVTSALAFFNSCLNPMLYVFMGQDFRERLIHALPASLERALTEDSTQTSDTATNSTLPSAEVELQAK
# Target: T1, Formyl-Peptide Receptor 1
# Test: cell-based or functional assay
row,Binder,β-Arrestin IC50 [nM]
1,cyclo(YHECHG[dP]WTICYQK[dP]P) (disulfide 4-11; SMILES CC[C@H](C)[C@@H]1NC(=O)[C@H]([C@@H](C)O)NC(=O)[C@H](Cc2c[nH]c3ccccc23)NC(=O)[C@H]2CCCN2C(=O)CNC(=O)[C@H](Cc2c[nH]cn2)NC(=O)[C@@H]2CSSC[C@H](NC1=O)C(=O)N[C@@H](Cc1ccc(O)cc1)C(=O)N[C@@H](CCC(N)=O)C(=O)N[C@@H](CCCCN)C(=O)N1CCC[C@@H]1C(=O)N1CCC[C@H]1C(=O)N[C@@H](Cc1ccc(O)cc1)C(=O)N[C@@H](Cc1c[nH]cn1)C(=O)N[C@@H](CCC(=O)O)C(=O)N2) [cyclo(-Tyr-His-Glu-Cys-His-Gly-^DPro-Trp-Thr-Ile-Cys-Tyr-Gln-Lys-^DPro-Pro-)],321
2,cyclo(YHACWG[dP]WTICYEK[dP]P) (disulfide 4-11; SMILES CC[C@H](C)[C@@H]1NC(=O)[C@H]([C@@H](C)O)NC(=O)[C@H](Cc2c[nH]c3ccccc23)NC(=O)[C@H]2CCCN2C(=O)CNC(=O)[C@H](Cc2c[nH]c3ccccc23)NC(=O)[C@@H]2CSSC[C@H](NC1=O)C(=O)N[C@@H](Cc1ccc(O)cc1)C(=O)N[C@@H](CCC(=O)O)C(=O)N[C@@H](CCCCN)C(=O)N1CCC[C@@H]1C(=O)N1CCC[C@H]1C(=O)N[C@@H](Cc1ccc(O)cc1)C(=O)N[C@@H](Cc1c[nH]cn1)C(=O)N[C@@H](C)C(=O)N2) [cyclo(-Tyr-His-Ala-Cys-Trp-Gly-^DPro-Trp-Thr-Ile-Cys-Tyr-Glu-Lys-^DPro-Pro-)],68
3,cyclo(YHICHG[dP]WTICYQK[dP]P) (disulfide 4-11; SMILES CC[C@H](C)[C@@H]1NC(=O)[C@H](Cc2c[nH]cn2)NC(=O)[C@H](Cc2ccc(O)cc2)NC(=O)[C@@H]2CCCN2C(=O)[C@H]2CCCN2C(=O)[C@H](CCCCN)NC(=O)[C@H](CCC(N)=O)NC(=O)[C@H](Cc2ccc(O)cc2)NC(=O)[C@@H]2CSSC[C@H](NC1=O)C(=O)N[C@@H](Cc1c[nH]cn1)C(=O)NCC(=O)N1CCC[C@@H]1C(=O)N[C@@H](Cc1c[nH]c3ccccc13)C(=O)N[C@@H]([C@@H](C)O)C(=O)N[C@@H]([C@@H](C)CC)C(=O)N2) [cyclo(-Tyr-His-Ile-Cys-His-Gly-^DPro-Trp-Thr-Ile-Cys-Tyr-Gln-Lys-^DPro-Pro-)],35
4,cyclo(YHACWG[dP]WTICYWK[dP]P) (disulfide 4-11; SMILES CC[C@H](C)[C@@H]1NC(=O)[C@H]([C@@H](C)O)NC(=O)[C@H](Cc2c[nH]c3ccccc23)NC(=O)[C@H]2CCCN2C(=O)CNC(=O)[C@H](Cc2c[nH]c3ccccc23)NC(=O)[C@@H]2CSSC[C@H](NC1=O)C(=O)N[C@@H](Cc1ccc(O)cc1)C(=O)N[C@@H](Cc1c[nH]c3ccccc13)C(=O)N[C@@H](CCCCN)C(=O)N1CCC[C@@H]1C(=O)N1CCC[C@H]1C(=O)N[C@@H](Cc1ccc(O)cc1)C(=O)N[C@@H](Cc1c[nH]cn1)C(=O)N[C@@H](C)C(=O)N2) [cyclo(-Tyr-His-Ala-Cys-Trp-Gly-^DPro-Trp-Thr-Ile-Cys-Tyr-Trp-Lys-^DPro-Pro-)],62
5,cyclo(YHACWG[dP]WTICYQA[dP]P) (disulfide 4-11; SMILES CC[C@H](C)[C@@H]1NC(=O)[C@H]([C@@H](C)O)NC(=O)[C@H](Cc2c[nH]c3ccccc23)NC(=O)[C@H]2CCCN2C(=O)CNC(=O)[C@H](Cc2c[nH]c3ccccc23)NC(=O)[C@@H]2CSSC[C@H](NC1=O)C(=O)N[C@@H](Cc1ccc(O)cc1)C(=O)N[C@@H](CCC(N)=O)C(=O)N[C@@H](C)C(=O)N1CCC[C@@H]1C(=O)N1CCC[C@H]1C(=O)N[C@@H](Cc1ccc(O)cc1)C(=O)N[C@@H](Cc1c[nH]cn1)C(=O)N[C@@H](C)C(=O)N2) [cyclo(-Tyr-His-Ala-Cys-Trp-Gly-^DPro-Trp-Thr-Ile-Cys-Tyr-Gln-Ala-^DPro-Pro-)],76
6,cyclo(YHWCWG[dP]WTICYQK[dP]P) (disulfide 4-11; SMILES CC[C@H](C)[C@@H]1NC(=O)[C@H]([C@@H](C)O)NC(=O)[C@H](Cc2c[nH]c3ccccc23)NC(=O)[C@H]2CCCN2C(=O)CNC(=O)[C@H](Cc2c[nH]c3ccccc23)NC(=O)[C@@H]2CSSC[C@H](NC1=O)C(=O)N[C@@H](Cc1ccc(O)cc1)C(=O)N[C@@H](CCC(N)=O)C(=O)N[C@@H](CCCCN)C(=O)N1CCC[C@@H]1C(=O)N1CCC[C@H]1C(=O)N[C@@H](Cc1ccc(O)cc1)C(=O)N[C@@H](Cc1c[nH]cn1)C(=O)N[C@@H](Cc1c[nH]c3ccccc13)C(=O)N2) [cyclo(-Tyr-His-Trp-Cys-Trp-Gly-^DPro-Trp-Thr-Ile-Cys-Tyr-Gln-Lys-^DPro-Pro-)],89
7,cyclo(EHKCHG[dP]WTICYEK[dP]P) (disulfide 4-11; SMILES CC[C@H](C)[C@@H]1NC(=O)[C@H]([C@@H](C)O)NC(=O)[C@H](Cc2c[nH]c3ccccc23)NC(=O)[C@H]2CCCN2C(=O)CNC(=O)[C@H](Cc2c[nH]cn2)NC(=O)[C@@H]2CSSC[C@H](NC1=O)C(=O)N[C@@H](Cc1ccc(O)cc1)C(=O)N[C@@H](CCC(=O)O)C(=O)N[C@@H](CCCCN)C(=O)N1CCC[C@@H]1C(=O)N1CCC[C@H]1C(=O)N[C@@H](CCC(=O)O)C(=O)N[C@@H](Cc1c[nH]cn1)C(=O)N[C@@H](CCCCN)C(=O)N2) [cyclo(-Glu-His-Lys-Cys-His-Gly-^DPro-Trp-Thr-Ile-Cys-Tyr-Glu-Lys-^DPro-Pro-)],165
8,cyclo([Dab]HKCHG[dP]WTICYEK[dP]E) (disulfide 4-11; SMILES CC[C@H](C)[C@@H]1NC(=O)[C@H]([C@@H](C)O)NC(=O)[C@H](Cc2c[nH]c3ccccc23)NC(=O)[C@H]2CCCN2C(=O)CNC(=O)[C@H](Cc2c[nH]cn2)NC(=O)[C@@H]2CSSC[C@H](NC1=O)C(=O)N[C@@H](Cc1ccc(O)cc1)C(=O)N[C@@H](CCC(=O)O)C(=O)N[C@@H](CCCCN)C(=O)N1CCC[C@@H]1C(=O)N[C@@H](CCC(=O)O)C(=O)N[C@@H](CCN)C(=O)N[C@@H](Cc1c[nH]cn1)C(=O)N[C@@H](CCCCN)C(=O)N2) [cyclo(-Dab-His-Lys-Cys-His-Gly-^DPro-Trp-Thr-Ile-Cys-Tyr-Glu-Lys-^DPro-Glu-)],144
9,cyclo(YHKCWG[dP]WTICYQK[dP]P) (disulfide 4-11; SMILES CC[C@H](C)[C@@H]1NC(=O)[C@H]([C@@H](C)O)NC(=O)[C@H](Cc2c[nH]c3ccccc23)NC(=O)[C@H]2CCCN2C(=O)CNC(=O)[C@H](Cc2c[nH]c3ccccc23)NC(=O)[C@@H]2CSSC[C@H](NC1=O)C(=O)N[C@@H](Cc1ccc(O)cc1)C(=O)N[C@@H](CCC(N)=O)C(=O)N[C@@H](CCCCN)C(=O)N1CCC[C@@H]1C(=O)N1CCC[C@H]1C(=O)N[C@@H](Cc1ccc(O)cc1)C(=O)N[C@@H](Cc1c[nH]cn1)C(=O)N[C@@H](CCCCN)C(=O)N2) [cyclo(-Tyr-His-Lys-Cys-Trp-Gly-^DPro-Trp-Thr-Ile-Cys-Tyr-Gln-Lys-^DPro-Pro-)],71
10,cyclo(YHACWG[dP]WTICYQE[dP]P) (disulfide 4-11; SMILES CC[C@H](C)[C@@H]1NC(=O)[C@H]([C@@H](C)O)NC(=O)[C@H](Cc2c[nH]c3ccccc23)NC(=O)[C@H]2CCCN2C(=O)CNC(=O)[C@H](Cc2c[nH]c3ccccc23)NC(=O)[C@@H]2CSSC[C@H](NC1=O)C(=O)N[C@@H](Cc1ccc(O)cc1)C(=O)N[C@@H](CCC(N)=O)C(=O)N[C@@H](CCC(=O)O)C(=O)N1CCC[C@@H]1C(=O)N1CCC[C@H]1C(=O)N[C@@H](Cc1ccc(O)cc1)C(=O)N[C@@H](Cc1c[nH]cn1)C(=O)N[C@@H](C)C(=O)N2) [cyclo(-Tyr-His-Ala-Cys-Trp-Gly-^DPro-Trp-Thr-Ile-Cys-Tyr-Gln-Glu-^DPro-Pro-)],63
11,cyclo(YHACHG[dP]WTICYQE[dP]P) (disulfide 4-11; SMILES CC[C@H](C)[C@@H]1NC(=O)[C@H]([C@@H](C)O)NC(=O)[C@H](Cc2c[nH]c3ccccc23)NC(=O)[C@H]2CCCN2C(=O)CNC(=O)[C@H](Cc2c[nH]cn2)NC(=O)[C@@H]2CSSC[C@H](NC1=O)C(=O)N[C@@H](Cc1ccc(O)cc1)C(=O)N[C@@H](CCC(N)=O)C(=O)N[C@@H](CCC(=O)O)C(=O)N1CCC[C@@H]1C(=O)N1CCC[C@H]1C(=O)N[C@@H](Cc1ccc(O)cc1)C(=O)N[C@@H](Cc1c[nH]cn1)C(=O)N[C@@H](C)C(=O)N2) [cyclo(-Tyr-His-Ala-Cys-His-Gly-^DPro-Trp-Thr-Ile-Cys-Tyr-Gln-Glu-^DPro-Pro-)],132
12,cyclo(YHTCHG[dP]WTICYQK[dP]P) (disulfide 4-11; SMILES CC[C@H](C)[C@@H]1NC(=O)[C@H]([C@@H](C)O)NC(=O)[C@H](Cc2c[nH]c3ccccc23)NC(=O)[C@H]2CCCN2C(=O)CNC(=O)[C@H](Cc2c[nH]cn2)NC(=O)[C@@H]2CSSC[C@H](NC1=O)C(=O)N[C@@H](Cc1ccc(O)cc1)C(=O)N[C@@H](CCC(N)=O)C(=O)N[C@@H](CCCCN)C(=O)N1CCC[C@@H]1C(=O)N1CCC[C@H]1C(=O)N[C@@H](Cc1ccc(O)cc1)C(=O)N[C@@H](Cc1c[nH]cn1)C(=O)N[C@@H]([C@@H](C)O)C(=O)N2) [cyclo(-Tyr-His-Thr-Cys-His-Gly-^DPro-Trp-Thr-Ile-Cys-Tyr-Gln-Lys-^DPro-Pro-)],178
13,cyclo(YHACHG[dP]WTICYWK[dP]P) (disulfide 4-11; SMILES CC[C@H](C)[C@@H]1NC(=O)[C@H]([C@@H](C)O)NC(=O)[C@H](Cc2c[nH]c3ccccc23)NC(=O)[C@H]2CCCN2C(=O)CNC(=O)[C@H](Cc2c[nH]cn2)NC(=O)[C@@H]2CSSC[C@H](NC1=O)C(=O)N[C@@H](Cc1ccc(O)cc1)C(=O)N[C@@H](Cc1c[nH]c3ccccc13)C(=O)N[C@@H](CCCCN)C(=O)N1CCC[C@@H]1C(=O)N1CCC[C@H]1C(=O)N[C@@H](Cc1ccc(O)cc1)C(=O)N[C@@H](Cc1c[nH]cn1)C(=O)N[C@@H](C)C(=O)N2) [cyclo(-Tyr-His-Ala-Cys-His-Gly-^DPro-Trp-Thr-Ile-Cys-Tyr-Trp-Lys-^DPro-Pro-)],36
14,cyclo(YHWCHG[dP]WTICYQK[dP]P) (disulfide 4-11; SMILES CC[C@H](C)[C@@H]1NC(=O)[C@H]([C@@H](C)O)NC(=O)[C@H](Cc2c[nH]c3ccccc23)NC(=O)[C@H]2CCCN2C(=O)CNC(=O)[C@H](Cc2c[nH]cn2)NC(=O)[C@@H]2CSSC[C@H](NC1=O)C(=O)N[C@@H](Cc1ccc(O)cc1)C(=O)N[C@@H](CCC(N)=O)C(=O)N[C@@H](CCCCN)C(=O)N1CCC[C@@H]1C(=O)N1CCC[C@H]1C(=O)N[C@@H](Cc1ccc(O)cc1)C(=O)N[C@@H](Cc1c[nH]cn1)C(=O)N[C@@H](Cc1c[nH]c3ccccc13)C(=O)N2) [cyclo(-Tyr-His-Trp-Cys-His-Gly-^DPro-Trp-Thr-Ile-Cys-Tyr-Gln-Lys-^DPro-Pro-)],177
